Test results published in US20160297884A1 (Pfizer, published 2016).
Substitutions are numbered along the chain they refer to.

T1: Human BCMA (human, UniProt Q02223 1-54, limits assumed)
T1 construct: Soluble analyte in SPR; construct not described; also called huBCMA; B-cell maturation antigen
T1 sequence (looked up): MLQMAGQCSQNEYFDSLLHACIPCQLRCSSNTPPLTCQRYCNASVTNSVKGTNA

B1: L3.PY/H3.TAQ (antibody, V domains shown)
VH: EVQLLESGGGLVQPGGSLRLSCAASGFTFGSYAMTWVRQAPGKGLEWVSAISGSGGNTFYADSVKGRFTISRDNSKNTLYLQMNSLRAEDTAVYYCTRVSPIAAQMDYWGQGTLVTVSS
VL: EIVLTQSPGTLSLSPGERATLSCRASQSVSSSYLAWYQQKPGQAPRLLIYGASSRATGIPDRFSGSGSGTDFTLTISRLEPEDFAVYYCQHYPYPPSFTFGQGTKVEIK
notes: Tested as IgG
B2: A02_Rd4_6nM_C01 (antibody, V domains shown)
VH: EVQLLESGGGLVQPGGSLRLSCAASGFTFSSYAMNWVRQAPGKGLEWVSAITASGGSTYYADSVKGRFTISRDNSKNTLYLQMNSLRAEDTAVYYCARYWPMSLWGQGTLVTVSS
VL: EIVLTQSPGTLSLSPGERATLSCRASQSVSAYYLAWYQQKPGQAPRLLMYDASIRATGIPDRFSGSGSGTDFTLTISRLEPEDFAVYYCQQYERWPLTFGQGTKVEIK
B3: A02_Rd4_6nM_C16 (antibody, V domains shown)
VH: B2 VH with T52S, A53D, S54F, S103D, L104I
VL: B2 VL with A31D, Y32L, E93Q, R94T
notes: Tested as IgG; also called P5AC16
B4: COMBO_Rd4_0.6nM_C29 (antibody, V domains shown)
VH: B2 VH with A33P, N35S, T52G, A53G, T58L, Y59P, S103D, L104I
VL: B2 VL with A31S, Y32S, E93Q, R94S
notes: Tested as IgG
B5: L3.PY/P6E01 (antibody, V domains shown)
VH: B1 VH with T97A, A104S, Q105G
VL: B1 VL
notes: IgG
B6: L3.PY/L1.PS/H2.QR (antibody, V domains shown)
VH: B1 VH with S63Q, V64R, T97A, A104S, Q105G
VL: B1 VL with L34P, A35S
notes: IgG
B7: L1.LGF/L3.PY/H3.AQ (antibody, V domains shown)
VH: B1 VH with T97A
VL: B1 VL with V29L, S30G, S32F
notes: IgG
B8: L3.NY/P6E01 (antibody, V domains shown)
VH: B1 VH with T97A, A104S, Q105G
VL: B1 VL with P93N
notes: IgG
B9: L3.KW/P6E01 (antibody, V domains shown)
VH: B1 VH with T97A, A104S, Q105G
VL: B1 VL with Q90K, P93G, Y94W
notes: IgG

target: BCMA (analyte of Table 4A); assay: SPR (Bio-Rad ProteOn XPR36), IgG amine-coupled, BCMA as analyte, kinetic titration; species of BCMA and temperature not stated for Table 4A
Experimental: All experiments were performed on a Bio-Rad Proteon XPR36 surface Plasmon resonance biosensor (Bio-Rad, Hercules, Calif.). […] The analysis temperature for the immobilization was 25° C. and the running buffer was HBS-T+(10 mM HEPES, 150 mM NaCl, 0.05% Tween-20, pH 7.4). Channels were activated in the analyte (horizontal) direction by injecting a mixture of 1 mM ECD and 0.25 mM NHS for 3 minutes at a flow rate of 30 μL/min. IgGs were immobilized on the activated spots by injecting them in the ligand (vertical) direction at 20 μg/mL in 10 mM Acetate pH 4.5 buffer for 1.5 minutes at […]. The activated surfaces were blocked by injecting 1M ethanolamine, pH 8.5 in the analyte direction for 3 minutes at 30 μL/min.
The analysis temperature for the BCMA binding analysis was 37° C. or 25° C. in a running buffer of HBS-T+, supplemented with 1 mg/mL BSA. A kinetic titration method was employed for the interaction analysis as described in Abdiche, et al. Human BCMA (huBCMA) or cynomolgus monkey BCMA (cyBCMA) analyte was injected in the analyte direction using a series of injections from low to high concentration. The concentrations used were 0.08 nM, 0.4 nM, 2 nM, 10 nM and 50 nM (a 5-membered series, with a 5-fold dilution factor and top concentration of 50 nM). The association time for a given analyte dilution was two minutes. Immediately after the 50 nM BCMA injection, dissociation was monitored for 2 hours.
The sensorgrams were double-referenced and fit to a 1:1 Langmuir with mass transport kinetic titration model in BIAevaluation Software version 4.1.1 (GE Lifesciences, Piscataway, N.J.).

Chain of BCMA (analyte of Table 4A) (Q02223 whole entry, the tested form may be a part): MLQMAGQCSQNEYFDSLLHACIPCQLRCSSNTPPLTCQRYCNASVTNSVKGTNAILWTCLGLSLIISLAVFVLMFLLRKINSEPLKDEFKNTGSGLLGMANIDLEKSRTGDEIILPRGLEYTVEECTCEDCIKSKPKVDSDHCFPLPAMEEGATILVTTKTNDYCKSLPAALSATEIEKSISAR

Binder | Kd [nM] | koff [s⁻¹] | kon [M⁻¹ s⁻¹] | t1/2 [min]
B1 | 0.053 | 0.00014 | 2.6e+06 | 84
B2 | 0.024 | 2.8e-05 | 1.2e+06 | 411
B3 | 0.059 | 6.2e-05 | 1.1e+06 | 187
B4 | 0.021 | 0.00014 | 6.6e+06 | 83

target: T2, cynomolgus monkey BCMA (cynomolgus monkey, UniProt A0A2K5UD97 1-53); assay: SPR, IgG immobilised, 37 C
T2 construct: Soluble analyte in SPR; construct not described; also called cyBCMA; Cyno BCMA
In short: (§1)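 Binding was run at 37° C or 25° C with species-specific BCMA (human or cyno) flowed over immobilized IgG in a single-cycle series of 0.08, 0.4, 2, 10, 50 nM.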

T2 sequence (A0A2K5UD97 entry or part of it): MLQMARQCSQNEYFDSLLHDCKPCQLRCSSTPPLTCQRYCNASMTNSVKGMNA

Binder | Kd [nM] | T ½ [min] | koff [s⁻¹] | kon [M⁻¹ s⁻¹]
B5 | 5.96 | 0.88 | 0.0131 | 2.2e+06
B6 | 1.28 | 17.2 | 0.00067 | 525000

target: T1, Human BCMA; assay: SPR, IgG immobilised, 37 C
In short: as §1

Binder | Kd [nM] | T ½ [min] | koff [s⁻¹] | kon [M⁻¹ s⁻¹]
B5 | 0.74 | 5.91 | 0.00196 | 2.65e+06
B6 | 25.9 | 0.11 | – | 3.97e+06

target: T2, cynomolgus monkey BCMA; assay: SPR, IgG immobilised, 25 C
In short: as §1

Binder | Kd [nM] | T ½ [min] | koff [s⁻¹] | kon [M⁻¹ s⁻¹]
B5 | 3.4 | 3.9 | 0.00293 | 855000
B7 | 4.8 | 2.4 | 0.00477 | 1e+06
B8 | 2.8 | 4 | 0.00287 | 1.01e+06
B9 | 3.4 | 4.5 | 0.00257 | 763000

target: T1, Human BCMA; assay: SPR, IgG immobilised, 25 C
In short: as §1

Binder | Kd [nM] | T ½ [min] | koff [s⁻¹] | kon [M⁻¹ s⁻¹]
B5 | 0.32 | 50.7 | 0.000228 | 712000
B7 | 0.95 | 13 | 0.000886 | 931000
B8 | 0.44 | 30.1 | 0.000384 | 876000
B9 | 0.43 | 36.7 | 0.000315 | 740000

target: T1, Human BCMA; assay: SPR, IgG immobilised, 37 C; huBCMA @25° C.

Binder | koff [s⁻¹]
B6 | 0.103
